The record followed here is publication PMC12325948, “14-3-3 binding maintains the Parkinson’s associated kinase LRRK2 in an inactive state” (Nature Communications, 2025).

Usually stoichiometry N stands for the number of molecules, sites or subunits per partner or assembly. By Kd is commonly meant the equilibrium constant for the complex coming apart.

Data set [1] addresses endogenous 14-3-3 (detected with anti-pan-14-3-3) (UniProt P61981). The experiment in a line: Co-IP.
In data set [2] the target is Full-length human LRRK2 (Uniprot Q5S007 with R85H mutation), N-terminal 3X-FLAG, purified (human) (UniProt Q5S007). The experiment in a line: SEC + other: mass photometry; LRRK2 dimers isolated by gel filtration and confirmed by mass photometry. In general terms: Size exclusion chromatography separates by hydrodynamic size, large species first.
Data set [3] addresses N-terminal His-tagged 14-3-3γ (Uniprot P61981) (UniProt P61981). The data set can be described thus: MST. The settings on record: parent: est. 210 nM, read off a plot.
Data set [4] concerns the target Flag-tagged LRRK2 WT expressed in HEK293FT cells (human) (UniProt Q5S007). The experiment in a line: co-IP; HEK293FT cells transfected with WT or mutant Flag-tagged LRRK2, FLAG-M2 resin, elution with 3X-FLAG peptide, blot with anti-pan-14-3-3; ratio of endogenous 14-3-3 to LRRK2; in one panel cells treated with MLi-2 or Rebastinib.
The target of data set [5] is LRRK2 mutants at the secondary interface (COR residues) in the Co-IP of Fig. 2d. The data set is described as above.
The target of data set [6] is Flag-tagged LRRK2 R1728H expressed in HEK293FT cells (human) (UniProt Q5S007). Described as above.
The target of data set [7] is Full-length human LRRK2 (Uniprot Q5S007 with R85H mutation), N-terminal 3X-FLAG, purified, Q5S007. The experiment in a line: MST. The settings on record: chain shown with the change; right graph; 14-3-3 Variants; parent: est. 210 nM; read off a plot.
Data set [8] deals with Full-length human LRRK2 (Uniprot Q5S007 with R85H mutation), N-terminal 3X-FLAG, purified (human) (UniProt Q5S007). The data set can be described thus: MST; as a3 with the type I kinase inhibitor MLi-2 at 2 uM.
The target of data set [9] is Purified LRRK2 mutated at the primary interaction residues S910/S935 (human) (UniProt Q5S007).
Data set [10] addresses Full-length human LRRK2 (Uniprot Q5S007 with R85H mutation), N-terminal 3X-FLAG, purified (human) (UniProt Q5S007). The experiment in a line: MST; LRRK2 labelled with RED-NHS 2nd generation at 40 nM, 14-3-3 titrated from a 485 µM stock in 1:2 dilutions, 25 °C for 1 h, 1:1 binding model.
In data set [11] the target is Purified LRRK2 mutants on the LRRK2 side of the COR:14-3-3_(2) interface (MST, Fig. 2e right). The data set is described as above.
Data set [12] concerns the molecule itself. The data set can be described thus: cryo-EM structure; LRRK2 monomer fraction at 50 mM NaCl with at least 60-fold molar excess of 14-3-3γ, cross-linked with 1 mM BS3, Superose 6; map at 3.96 Å, local refinement 3.87 Å.
The target of data set [13] is Full-length human LRRK2 (Uniprot Q5S007 with R85H mutation), N-terminal 3X-FLAG, purified (human) (UniProt Q5S007). The experiment in a line: SEC-MALS; pre-formed dimeric LRRK2 at 130 nM without and with 14-3-3γ at 1 to 100 times that of LRRK2, Superose 6 Increase 15/150, gel filtration buffer.
Data set [14] shares this target.
For data set [15] the target is unchanged. The data set can be described thus: cryo-EM structure; LRRK2 monomer fraction at 50 mM NaCl with at least 60-fold molar excess of 14-3-3γ, cross-linked with 1 mM BS3, Superose 6; map at 3.96 Å, local refinement 3.87 Å.
The target of data set [16] is Purified LRRK2 mutated at the secondary interaction residue R1728 (mutant with reduced inhibition) (human), Q5S007.
For data set [17], the target named is Purified LRRK2 mutated at the secondary interaction residue L1727 (human), Q5S007.
The target of data set [18] is Purified LRRK2 mutated at the secondary interaction residue N1730 (human), Q5S007.
The target in data set [19] is Purified LRRK2 R1728H (human), Q5S007.
Data set [20] concerns the target Purified LRRK2 R1628P (human), Q5S007.
The target of data set [21] is Purified LRRK2 R1441G (human), Q5S007.
[22] abbreviates: left graph, Flag-tagged LRRK2 and endogenous 14-3-3, n = 3, parent: est. 1.0, read off a plot.
Where [23] appears, read: in cells, n = 3, parent: est. 1.0, read off a plot.
The mark [24] stands for this setting: right graph, Flag-tagged LRRK2 and endogenous 14-3-3, n = 3, parent: est. 1.0, read off a plot.

Full-length human LRRK2 (Uniprot Q5S007 with R85H mutation), N-terminal 3X-FLAG, purified, Q5S007, sequence (Q5S007 other isoform, or with tags, fused parts or gaps R85H): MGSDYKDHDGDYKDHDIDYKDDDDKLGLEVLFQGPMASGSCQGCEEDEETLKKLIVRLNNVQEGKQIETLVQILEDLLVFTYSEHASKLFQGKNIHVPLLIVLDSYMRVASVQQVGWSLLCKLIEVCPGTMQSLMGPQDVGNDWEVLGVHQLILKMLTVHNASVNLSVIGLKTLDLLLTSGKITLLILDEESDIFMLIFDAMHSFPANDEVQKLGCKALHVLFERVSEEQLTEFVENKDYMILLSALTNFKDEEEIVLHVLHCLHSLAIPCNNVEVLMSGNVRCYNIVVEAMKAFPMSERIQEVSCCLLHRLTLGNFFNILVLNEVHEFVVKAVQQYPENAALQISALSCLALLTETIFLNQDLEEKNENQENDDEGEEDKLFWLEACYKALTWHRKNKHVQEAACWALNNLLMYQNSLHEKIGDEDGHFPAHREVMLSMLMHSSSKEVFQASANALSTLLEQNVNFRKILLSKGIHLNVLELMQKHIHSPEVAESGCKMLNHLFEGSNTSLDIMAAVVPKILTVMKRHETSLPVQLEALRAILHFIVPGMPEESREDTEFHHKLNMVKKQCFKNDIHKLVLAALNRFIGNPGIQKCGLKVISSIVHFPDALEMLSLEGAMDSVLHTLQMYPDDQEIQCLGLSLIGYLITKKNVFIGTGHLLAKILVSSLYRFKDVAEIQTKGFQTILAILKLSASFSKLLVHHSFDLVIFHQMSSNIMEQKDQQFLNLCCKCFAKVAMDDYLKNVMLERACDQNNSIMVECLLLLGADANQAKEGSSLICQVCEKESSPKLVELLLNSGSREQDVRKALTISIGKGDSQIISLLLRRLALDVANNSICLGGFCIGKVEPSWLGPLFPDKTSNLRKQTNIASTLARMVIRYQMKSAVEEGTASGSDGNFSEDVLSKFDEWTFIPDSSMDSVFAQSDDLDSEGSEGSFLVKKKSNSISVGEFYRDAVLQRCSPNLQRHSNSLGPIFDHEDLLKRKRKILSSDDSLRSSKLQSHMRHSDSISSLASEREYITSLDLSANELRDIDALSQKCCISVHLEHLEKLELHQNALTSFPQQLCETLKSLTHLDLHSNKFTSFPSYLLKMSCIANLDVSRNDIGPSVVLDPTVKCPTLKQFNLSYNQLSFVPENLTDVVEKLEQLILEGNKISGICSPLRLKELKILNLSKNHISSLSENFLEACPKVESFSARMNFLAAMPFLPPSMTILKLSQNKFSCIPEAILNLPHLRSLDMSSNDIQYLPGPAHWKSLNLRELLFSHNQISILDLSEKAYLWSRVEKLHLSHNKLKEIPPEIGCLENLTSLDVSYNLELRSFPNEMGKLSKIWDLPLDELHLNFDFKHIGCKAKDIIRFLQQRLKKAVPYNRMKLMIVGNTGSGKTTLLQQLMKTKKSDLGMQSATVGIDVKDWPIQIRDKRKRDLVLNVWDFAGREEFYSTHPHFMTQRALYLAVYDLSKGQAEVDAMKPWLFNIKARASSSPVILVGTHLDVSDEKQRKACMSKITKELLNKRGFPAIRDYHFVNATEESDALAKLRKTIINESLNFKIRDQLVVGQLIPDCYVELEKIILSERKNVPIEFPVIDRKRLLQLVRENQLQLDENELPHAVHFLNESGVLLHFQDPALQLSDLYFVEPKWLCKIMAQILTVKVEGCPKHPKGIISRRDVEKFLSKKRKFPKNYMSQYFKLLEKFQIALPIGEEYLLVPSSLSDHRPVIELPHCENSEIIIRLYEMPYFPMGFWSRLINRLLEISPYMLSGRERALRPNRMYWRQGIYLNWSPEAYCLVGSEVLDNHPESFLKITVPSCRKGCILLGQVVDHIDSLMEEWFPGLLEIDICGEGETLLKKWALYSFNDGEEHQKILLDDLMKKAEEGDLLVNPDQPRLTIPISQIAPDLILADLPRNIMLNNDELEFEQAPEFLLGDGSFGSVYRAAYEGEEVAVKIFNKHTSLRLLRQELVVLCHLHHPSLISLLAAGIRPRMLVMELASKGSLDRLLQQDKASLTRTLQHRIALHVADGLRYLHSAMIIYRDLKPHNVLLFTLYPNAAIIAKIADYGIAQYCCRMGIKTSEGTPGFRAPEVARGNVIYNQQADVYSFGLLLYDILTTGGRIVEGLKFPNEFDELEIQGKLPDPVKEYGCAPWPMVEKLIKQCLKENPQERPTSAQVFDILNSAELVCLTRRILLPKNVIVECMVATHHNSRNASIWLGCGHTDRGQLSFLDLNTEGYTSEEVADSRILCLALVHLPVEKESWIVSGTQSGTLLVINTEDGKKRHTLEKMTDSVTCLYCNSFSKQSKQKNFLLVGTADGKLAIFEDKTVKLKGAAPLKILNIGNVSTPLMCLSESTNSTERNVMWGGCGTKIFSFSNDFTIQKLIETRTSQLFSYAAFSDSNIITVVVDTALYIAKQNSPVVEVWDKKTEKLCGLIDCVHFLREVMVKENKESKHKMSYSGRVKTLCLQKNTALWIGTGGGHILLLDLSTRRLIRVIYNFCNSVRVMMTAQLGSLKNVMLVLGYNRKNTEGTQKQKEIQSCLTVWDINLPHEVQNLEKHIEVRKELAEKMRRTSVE
Purified LRRK2 R1628P (human), Q5S007, sequence (Q5S007 whole entry R1628P): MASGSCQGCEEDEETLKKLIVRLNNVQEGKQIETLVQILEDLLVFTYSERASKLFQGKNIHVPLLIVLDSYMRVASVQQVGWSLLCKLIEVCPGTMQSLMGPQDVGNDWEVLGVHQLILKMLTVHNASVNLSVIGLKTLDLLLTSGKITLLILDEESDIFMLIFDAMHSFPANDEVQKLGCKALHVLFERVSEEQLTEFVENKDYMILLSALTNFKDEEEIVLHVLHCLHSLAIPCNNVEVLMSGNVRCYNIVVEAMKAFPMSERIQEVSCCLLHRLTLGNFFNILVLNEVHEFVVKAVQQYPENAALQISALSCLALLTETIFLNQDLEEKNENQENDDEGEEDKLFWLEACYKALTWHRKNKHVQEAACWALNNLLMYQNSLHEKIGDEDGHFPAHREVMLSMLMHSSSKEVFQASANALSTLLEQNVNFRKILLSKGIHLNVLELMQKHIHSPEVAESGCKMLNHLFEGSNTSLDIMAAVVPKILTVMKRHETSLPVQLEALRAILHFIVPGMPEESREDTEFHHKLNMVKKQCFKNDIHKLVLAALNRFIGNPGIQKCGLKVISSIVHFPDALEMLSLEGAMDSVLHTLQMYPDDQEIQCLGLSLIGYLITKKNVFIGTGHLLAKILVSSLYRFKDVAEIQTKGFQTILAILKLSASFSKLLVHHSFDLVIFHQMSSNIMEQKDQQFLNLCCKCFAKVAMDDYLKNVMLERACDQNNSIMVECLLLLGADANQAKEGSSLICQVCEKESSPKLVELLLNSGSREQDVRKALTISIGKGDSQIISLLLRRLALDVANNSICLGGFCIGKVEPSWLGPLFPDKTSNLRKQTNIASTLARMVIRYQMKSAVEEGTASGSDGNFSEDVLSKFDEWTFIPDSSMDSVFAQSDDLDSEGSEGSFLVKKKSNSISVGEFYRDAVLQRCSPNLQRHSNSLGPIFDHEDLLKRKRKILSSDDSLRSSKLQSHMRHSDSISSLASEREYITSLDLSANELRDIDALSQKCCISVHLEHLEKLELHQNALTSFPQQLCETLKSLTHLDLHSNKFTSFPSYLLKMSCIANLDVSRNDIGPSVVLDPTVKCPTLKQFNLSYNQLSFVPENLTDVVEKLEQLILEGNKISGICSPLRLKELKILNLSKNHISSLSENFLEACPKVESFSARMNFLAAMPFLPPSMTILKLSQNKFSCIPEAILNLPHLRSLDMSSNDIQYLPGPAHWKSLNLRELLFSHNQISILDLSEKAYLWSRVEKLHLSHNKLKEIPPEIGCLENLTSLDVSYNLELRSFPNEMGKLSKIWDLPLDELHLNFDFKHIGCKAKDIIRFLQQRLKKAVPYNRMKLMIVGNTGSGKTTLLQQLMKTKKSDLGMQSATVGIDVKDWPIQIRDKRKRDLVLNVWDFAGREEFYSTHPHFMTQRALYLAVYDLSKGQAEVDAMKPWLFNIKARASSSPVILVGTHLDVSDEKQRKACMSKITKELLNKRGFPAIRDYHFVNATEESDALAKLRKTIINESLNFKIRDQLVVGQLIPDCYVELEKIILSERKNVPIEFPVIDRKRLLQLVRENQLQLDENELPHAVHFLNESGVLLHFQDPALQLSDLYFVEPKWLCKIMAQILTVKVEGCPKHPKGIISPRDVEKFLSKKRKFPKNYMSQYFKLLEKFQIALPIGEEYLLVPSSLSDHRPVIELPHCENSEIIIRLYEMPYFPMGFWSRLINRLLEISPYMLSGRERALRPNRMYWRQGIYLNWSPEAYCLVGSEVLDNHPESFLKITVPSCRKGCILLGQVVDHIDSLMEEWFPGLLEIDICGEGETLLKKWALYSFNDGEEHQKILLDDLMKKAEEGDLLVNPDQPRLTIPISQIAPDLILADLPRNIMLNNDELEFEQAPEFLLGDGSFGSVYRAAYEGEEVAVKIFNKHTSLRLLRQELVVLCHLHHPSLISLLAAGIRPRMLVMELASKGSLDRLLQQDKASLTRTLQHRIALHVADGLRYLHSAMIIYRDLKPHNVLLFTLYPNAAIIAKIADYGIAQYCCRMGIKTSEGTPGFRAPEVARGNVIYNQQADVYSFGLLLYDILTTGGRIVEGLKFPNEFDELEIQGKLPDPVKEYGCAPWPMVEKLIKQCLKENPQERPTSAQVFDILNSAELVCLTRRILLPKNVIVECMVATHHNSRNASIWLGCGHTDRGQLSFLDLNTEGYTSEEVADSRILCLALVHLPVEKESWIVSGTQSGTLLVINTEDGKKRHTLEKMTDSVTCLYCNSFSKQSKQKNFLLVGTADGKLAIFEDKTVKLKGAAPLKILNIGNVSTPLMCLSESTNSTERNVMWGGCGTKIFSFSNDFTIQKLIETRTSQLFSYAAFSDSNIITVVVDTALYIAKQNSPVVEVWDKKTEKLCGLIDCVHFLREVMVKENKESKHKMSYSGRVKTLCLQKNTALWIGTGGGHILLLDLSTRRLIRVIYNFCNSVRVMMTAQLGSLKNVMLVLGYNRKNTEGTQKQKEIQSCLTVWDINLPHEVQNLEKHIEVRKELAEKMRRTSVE
Purified LRRK2 mutated at the secondary interaction residue R1728 (mutant with reduced inhibition) (human), Q5S007, sequence (Q5S007 whole entry, change not shown): as the sequence (Q5S007 whole entry R1628P) above, with P1628R counted along it
Purified LRRK2 mutated at the secondary interaction residue L1727 (human), Q5S007, sequence (Q5S007 whole entry, change not shown): as the sequence (Q5S007 whole entry R1628P) above, with P1628R counted along it

On to “Flag-tagged LRRK2 WT expressed in HEK293FT cells, Q5S007 E1632A”, for which the ratio to parent in data set [1] (setting [22]) is 0.07.

With “Flag-tagged LRRK2 WT expressed in HEK293FT cells, Q5S007 G2019S”, in [1] (setting [23]), the ratio to parent is 1.5.

Consider “Flag-tagged LRRK2 WT expressed in HEK293FT cells, Q5S007 L1635A”, for which the ratio to parent in data set [1] (setting [22]) came to 0.11.

Consider “Flag-tagged LRRK2 WT expressed in HEK293FT cells, Q5S007 L1727A”, for which the ratio to parent in data set [1] (setting [24]) was 0.63.

As for “Flag-tagged LRRK2 WT expressed in HEK293FT cells, Q5S007 N1730A”, the ratio to parent in [1] (setting [24]) turned out to be 0.18.

Consider “Flag-tagged LRRK2 WT expressed in HEK293FT cells, Q5S007 R1441G”, for which the ratio to parent in data set [1] (setting [23]) amounted to 0.07.

On to “Flag-tagged LRRK2 WT expressed in HEK293FT cells, Q5S007 R1628P”, for which the ratio to parent in data set [1] (setting [23]) stood at 1.6.

Regarding “Flag-tagged LRRK2 WT expressed in HEK293FT cells, Q5S007 R1728A”, the ratio to parent in data set [1] (right graph, Flag-tagged LRRK2 and endogenous 14-3-3, n = 3, marked ns against WT, parent: est. 1.0, read off a plot) worked out at 0.98.

As for “Flag-tagged LRRK2 WT expressed in HEK293FT cells, Q5S007 S910A; S935A”, the ratio to parent in data set [1] (setting [23]) was 0.02; in [1] (setting [22]), 0.03; in data set [1] (setting [24]), 0.01.

Take “Flag-tagged LRRK2 WT expressed in HEK293FT cells, Q5S007 S1636A”: the ratio to parent in data set [1] (setting [22]) stood at 0.54.

Consider “Full-length human LRRK2 (Uniprot Q5S007 with R85H mutation), N-terminal 3X-FLAG, purified (from UniProt Q5S007 1-2527) (enzyme)”, for which the stoichiometry N in data set [2] is 2.

Take “Full-length human LRRK2 (Uniprot Q5S007 with R85H mutation), N-terminal 3X-FLAG, purified, Q5S007 L1727A”: the Kd in [3] (right graph, LRRK2 Variants) is 470 nM.

“Full-length human LRRK2 (Uniprot Q5S007 with R85H mutation), N-terminal 3X-FLAG, purified, Q5S007 R1728A”: the equilibrium dissociation constant (Kd) in data set [3] (right graph, LRRK2 Variants) came out at 560 nM.

As to “Full-length human LRRK2 (Uniprot Q5S007 with R85H mutation), N-terminal 3X-FLAG, purified, Q5S007 S910A; S935A”, the Kd in data set [3] (left graph, bar labelled S910/S935A) is 230000 nM.

For the molecule “endogenous 14-3-3 (detected with anti-pan-14-3-3) (from UniProt P61981 1-247) (natural protein)”, the fold decrease in co-immunoprecipitated 14-3-3 after treatment of the cells with MLi-2 in data set [4] was found to be 7 fold. Besides, in [5], the fold decrease in co-immunoprecipitated 14-3-3 was 2 to 13 fold and the percent reduction in binding against WT lay in the range of 40 to 90%. Further, the percent decrease in binding relative to WT in data set [6] stood at 50%.

B1: N-terminal His-tagged 14-3-3γ (Uniprot P61981), P61981 Y216A (protein)
chain: MVDREQLVQKARLAEQAERYDDMAAAMKNVTELNEPLSNEERNLLSVAYKNVVGARRSSWRVISSIEQKTSADGNEKKIEMVRAYREKIEKELEAVCQDVLSLLDNYLIKNCSETQYESKVFYLKMKGDYYRYLAEVATGEKRATVVESSEKAYSEAHEISKEHMQPTHPIRLGLALNYSVFYYEIQNAPEQACHLAKTAFDDAIAELDTLNEDSAKDSTLIMQLLRDNLTLWTSDQQDDDGGEGNN
In the case of B1, the equilibrium dissociation constant (Kd) in data set [7] is 680 nM.

B2: N-terminal His-tagged 14-3-3γ (Uniprot P61981) (natural protein, human)
chain: MVDREQLVQKARLAEQAERYDDMAAAMKNVTELNEPLSNEERNLLSVAYKNVVGARRSSWRVISSIEQKTSADGNEKKIEMVRAYREKIEKELEAVCQDVLSLLDNYLIKNCSETQYESKVFYLKMKGDYYRYLAEVATGEKRATVVESSEKAYSEAHEISKEHMQPTHPIRLGLALNYSVFYYEIQNAPEQACHLAKTAFDDAIAELDTLNEDSYKDSTLIMQLLRDNLTLWTSDQQDDDGGEGNN
notes: 14-3-3γ, Uniprot P61981; A TEV site follows the His tag; no cleavage is described; also called 14-3-3 gamma; 14-3-3 dimer; source: E. coli BL21*(DE3), purified (Ni-NTA, Superdex 75)
With B2, the fold decrease in binding affinity with MLi-2 against no inhibitor in data set [8] was 2 fold. Besides, the inhibition of Rab10 phosphorylation by LRRK2 in an in vitro kinase assay, 14-3-3 at 300 µM in [9] is 25%. Also, the Kd in data set [10] came out at 212 nM. This molecule also returned a fold increase in KD against the wild-type pair in data set [11] of 2 to 3 fold. For the same molecule, in data set [12], the “stoichiometry N” value was found to be 2. The stoichiometry N (14-3-3γ dimer per LRRK2 dimer) in data set [13] was 1. This molecule yielded an inhibition of Rab10 phosphorylation by LRRK2 in an in vitro kinase assay, 14-3-3 from 0 to 300 µM in [14] of 50%. Besides, the stoichiometry N (14-3-3 dimer per LRRK2 monomer) in data set [15] was 1.

B3: N-terminal His-tagged 14-3-3γ (Uniprot P61981), P61981 1-247 (natural protein)
chain: MVDREQLVQKARLAEQAERYDDMAAAMKNVTELNEPLSNEERNLLSVAYKNVVGARRSSWRVISSIEQKTSADGNEKKIEMVRAYREKIEKELEAVCQDVLSLLDNYLIKNCSETQYESKVFYLKMKGDYYRYLAEVATGEKRATVVESSEKAYSEAHEISKEHMQPTHPIRLGLALNYSVFYYEIQNAPEQACHLAKTAFDDAIAELDTLNEDSYKDSTLIMQLLRDNLTLWTSDQQDDDGGEGNN
Consider B3, for which the inhibition of Rab10 phosphorylation by LRRK2 in an in vitro kinase assay, 14-3-3 at 300 µM in data set [16], in [17] and in [18] was 25% in each case. Also, the reduction of the inhibition of LRRK2 kinase activity by 14-3-3 compared to WT in data set [19] and in data set [20] was 20% each time. In data set [21], the reduction of the 14-3-3 mediated inhibition of LRRK2 kinase activity was 30%.

B4: N-terminal His-tagged 14-3-3γ (Uniprot P61981), P61981 R227A (protein)
chain: MVDREQLVQKARLAEQAERYDDMAAAMKNVTELNEPLSNEERNLLSVAYKNVVGARRSSWRVISSIEQKTSADGNEKKIEMVRAYREKIEKELEAVCQDVLSLLDNYLIKNCSETQYESKVFYLKMKGDYYRYLAEVATGEKRATVVESSEKAYSEAHEISKEHMQPTHPIRLGLALNYSVFYYEIQNAPEQACHLAKTAFDDAIAELDTLNEDSYKDSTLIMQLLADNLTLWTSDQQDDDGGEGNN
B4: the Kd in data set [7] came to 640 nM.

B5: N-terminal His-tagged 14-3-3γ (Uniprot P61981), P61981 Q224A (protein)
chain: MVDREQLVQKARLAEQAERYDDMAAAMKNVTELNEPLSNEERNLLSVAYKNVVGARRSSWRVISSIEQKTSADGNEKKIEMVRAYREKIEKELEAVCQDVLSLLDNYLIKNCSETQYESKVFYLKMKGDYYRYLAEVATGEKRATVVESSEKAYSEAHEISKEHMQPTHPIRLGLALNYSVFYYEIQNAPEQACHLAKTAFDDAIAELDTLNEDSYKDSTLIMALLRDNLTLWTSDQQDDDGGEGNN
For B5, the Kd in data set [7] came out at 490 nM.
